Residue numbers refer to the chain shown, from its start.

What all share (experiment): flow cytometry on peptide-pulsed T2 cells, scFv 100 nM
On the technique in general: A flow cytometer gives signals particle by particle.

One test deals with T1, 1F.
T1 construct: also called HLA-A2 / point-mutant NY-ESO peptide 1F complex on T2 cells

Another test deals with T2, 2M.
T2 construct: also called HLA-A2 / point-mutant NY-ESO peptide 2M complex on T2 cells

Another test has as its target T3, 3A.
T3 construct: also called HLA-A2 / point-mutant NY-ESO peptide 3A complex on T2 cells

Another test concerns the target T4, 4A.
T4 construct: also called HLA-A2 / point-mutant NY-ESO peptide 4A complex on T2 cells

A further test concerns the target T5, 5A.
T5 construct: also called HLA-A2 / point-mutant NY-ESO peptide 5A complex on T2 cells

The next test has as its target T6, 6L.
T6 construct: also called HLA-A2 / point-mutant NY-ESO peptide 6L complex on T2 cells

The target of the next test is T7, 7F.
T7 construct: also called HLA-A2 / point-mutant NY-ESO peptide 7F complex on T2 cells

A further test deals with T8, 8A.
T8 construct: also called HLA-A2 / point-mutant NY-ESO peptide 8A complex on T2 cells

The next test addresses T9, 9A.
T9 construct: also called HLA-A2 / point-mutant NY-ESO peptide 9A complex on T2 cells

Experimental for 1F: (§1) The resultant was washed two times in the AIM-V medium containing 20% FBS, the concentration thereof was adjusted to an adequate level with PBS containing 5% FBS, the LIVE/DEAD Fixable Dead Cell Stain Kit (Thermo Fisher Scientific) was added thereto, and the resultant was allowed to stand at 4° C. for 30 minutes. The cells were washed 2 times in PBS containing 5% FBS, the washed cells were divided into two groups, the cells in PBS containing 5% FBS were seeded on a 96-well U-bottom microplate at 10⁵ cells/well, and the plate was subjected to centrifugation, followed by removal of the supernatant. Anti-HLA/NY-ESO scFv diluted to 100 nM with PBS containing 5% FBS was added at 25 μl/well to one of the divided cells, and the resultant was allowed to stand at 4° C. for 30 minutes. The cells were washed 2 times in PBS containing 5% FBS, Penta-His Alexa Fluor488 (QIAGEN) diluted in PBS containing 5% FBS was added at 25 μl/well, and the resultant was allowed to stand at 4° C. for 30 minutes. The cells were washed 2 times in PBS containing 5% FBS, Anti-mouse-IgG Alexa Fluor488 (Thermo Fisher Scientific) diluted in PBS containing 5% FBS was added at 25 μl/well, and the resultant was allowed to stand at 4° C. for 30 minutes. The cells were washed 2 times in PBS containing 5% FBS, immobilized with Mildform 10 N (FUJIFILM Wako Pure Chemical Corporation) overnight, and resuspended in PBS containing 5% FBS. […] The cells were washed 2 times in PBS containing 5% FBS, immobilized with Mildform 10 N (FUJIFILM Wako Pure Chemical Corporation) overnight, and resuspended in PBS containing 5% FBS. The cell suspensions were subjected to detection using a flow cytometer (CantoII, Becton Dickinson). […] The standardized gMFI indicating the binding affinity of each scFv standardized with the amount of the HLA/peptide complex on the T2 cells was determined in accordance with the following equation.
Experimental for 2M: as §1
Experimental for 3A: as §1
Experimental for 4A: as §1
Experimental for 5A: as §1
Experimental for 6L: as §1
Experimental for 7F: as §1
Experimental for 8A: as §1
Experimental for 9A: as §1

B1: NYA-0001 (scFv)
scFv: GEVQLVESGGGVVQPGRSLTPSCSASGFSIRSYDIHWVRQAPGKGLEWVATISYDGSQKYFADSVKGRFTIFRDESENMVYLQMSGLRVEDTAVYHCARGSSGHYEAFDIWGQGTMVTVSSGGGGSGGGGSGGGGSQSVLTQPPSVSAAPGQKVTISCSGSSSNIGNNYVSWYQQLPGTAPKLLIYDNNKRPSGIPDRFSGSKSGTSATLGITGLQTGDEADYYCGTWDSSLSAPWVFGGGTKVTVLGAAAGAGGDYKDDDDKGAAAHHHHHH
notes: also called NYA-0001 tag adduct; NY-R119 expressed in a cultured mammalian cell
On to B1, for which the “standardized gMFI” value with 1F amounted to 0.6; with 2M, 7.72; in the test with 3A, 7.88; with 4A it was 0.83; with 5A, 0.78; with 6L, 7.97. Further, the “standardized gMFI” value with 7F came to 0.97; with 8A, 6.67; in the test with 9A it was 6.56.

B2: NYA-1143 (scFv)
scFv: B1 scFv with Q40L, N168W
With B2, the “standardized gMFI” value with 2M amounted to 11.9; with 3A, 10.2; in the test with 5A, 3.15; in the test with 6L, 12.9; with 8A it was 8.74; with 9A, 15.1.

B3: NYA-2023 (scFv)
scFv: B1 scFv with N168W
B3: the “standardized gMFI” value in the test with 1F was 0.72; with 2M, 6.74; in the test with 3A, 4.92; in the test with 4A, 2.48; with 6L it was 7.51; with 7F, 4.72. The “standardized gMFI” value stood at 5.4 with 8A and 10.8 in the test with 9A.

B4: NYA-2035 (scFv)
scFv: B1 scFv with Q40L, N168W, Y169K
Consider B4, for which the “standardized gMFI” value is 0.6 in the test with 1F; 8.8 in the test with 2M; 5.81 in the test with 3A; 8.95 with 6L; 5.83 with 7F; 6.41 in the test with 8A. Further, the “standardized gMFI” value with 9A is 11.5.

B5: NYA-1163 (scFv)
scFv: B1 scFv with Q40L
Consider B5, for which the “standardized gMFI” value with 1F was 0.53; in the test with 4A it was 0.57; in the test with 5A, 0.62; in the test with 8A, 6; with 9A, 4.01.

B6: NYA-2143 (scFv)
scFv: B1 scFv with Q40L, N168W, Q175R
Regarding B6, the “standardized gMFI” value in the test with 1F is 2.72; with 2M, 13.2; in the test with 3A it was 10.3; with 4A, 7.19; in the test with 6L it was 12.9; in the test with 8A, 9.69. For the same molecule, the “standardized gMFI” value in the test with 9A amounted to 14.5.

B7: NYA-1154 (scFv)
scFv: B1 scFv with I35M, G103N, Q175R, T227A
B7: the “standardized gMFI” value turned out to be 9.49 with 2M; 8 with 3A; 6.63 in the test with 4A; 9.36 with 6L; 6.08 with 7F; 11.9 with 8A. The “standardized gMFI” value in the test with 9A came to 11.2.

B8: NYC-0004 (scFv, not shown: small tags and cut ends)
scFv: EVQLLESGGGLVQPGGSLRLSCAASGFTFSTYQMSWVRQAPGKGLEWVSGIVSSGGSTAYADSVKGRFTISRDNSKNTLYLQMNSLRAEDTAVYYCAGELLPYYGMDVWGQGTTVTVSSGGGGSGGGGSGGGGSQSELTQPRSVSGSPGQSVTISCTGTERDVGGYNYVSWYQQHPGKAPKLIIHDVIERSSGVPDRFSGSKSGNTASLTISGLQAEDEADYYCWSFAGGYYVFGTGTDVTVL
notes: also called T1 scFv; NYC-0004 tag adduct
Consider B8, for which the “standardized gMFI” value with 1F was 3.56; with 2M it was 5.66; with 3A, 4.75; with 5A it was 0.65; with 6L it was 3.78; with 7F, 5.07. For the same molecule, the “standardized gMFI” value with 8A came out at 3.69; in the test with 9A, 7.99.

B9: NYA-2048 (scFv)
scFv: GQVQLVESGGGVVQPGRSLRLSCAASGFSIRSYDMHWVRQAPGKGLEWVATISYDGSQKYYADSVKGRFTISRDNSKNTLYLQMSSLRAEDTAVYHCARGSSGHYEAFDIWGQGTLVTVSSGGGGSGGGGSGGGGSQSVLTQPPSASGTPGQRVTISCSGSSSNIGNWYVSWYQQLPGTAPKLLIYDNNKRPSGVPDRFSGSKSGTSASLAISGLQSEDEADYYCGTWDSSLSAPWVFGGGTKLTVLGAAAGAGGDYKDDDDKGAAAHHHHHH
notes: also called NYA-2048 tag adduct
As for B9, the “standardized gMFI” value was determined as 0.51 with 1F; 5.36 in the test with 2M; 4.2 with 3A; 0.63 with 4A; 0.67 with 5A; 6.14 with 6L. Also, the “standardized gMFI” value in the test with 8A turned out to be 4.11; with 9A, 7.75.

B10: NYA-2044 (scFv)
scFv: GEVQLVESGGGLVQPGGSLRLSCAASGFSIRSYDIHWVRLAPGKGLEWVATISYDGSQKYYADSVKGRFTISRDESKNTLYLQMNSLRAEDTAVYHCARGSSGHYEAFDIWGQGTLVTVSSGGGGSGGGGSGGGGSQSVLTQPPSVSAAPGQKVTISCSGSSSNIGNWYVSWYQQLPGTAPKLLIYDNNKRPSGIPDRFSGSKSGTSATLGITGLQTGDEADYYCGTWDSSLSAPWVFGGGTKVTVLGAAAGAGGDYKDDDDKGAAAHHHHHH
notes: also called NYA-2044 tag adduct
Take B10: the “standardized gMFI” value in the test with 1F turned out to be 0.68; with 2M, 13.5; with 3A it was 10.9; with 4A, 3.21; in the test with 6L, 13.4; in the test with 7F, 3.62. Also, the “standardized gMFI” value stood at 10 in the test with 8A and 15.6 in the test with 9A.

B11: NYA-2047 (scFv)
scFv: B10 scFv with E2Q, L12V, G17R, I35M, L40Q, E75N, N85S
B11: the “standardized gMFI” value worked out at 0.48 in the test with 1F; 7.34 with 2M; 6.09 with 3A; 0.86 with 4A; 7.07 with 6L; 6.61 with 8A. Further, in the test with 9A, the “standardized gMFI” value came out at 9.54.

B12: NYA-2045 (scFv)
scFv: B9 scFv with Q2E, V12L, R17G, M35I, Q40L, N75E, S85N
notes: also called NYA-2045 tag adduct
In the case of B12, the “standardized gMFI” value with 1F is 0.53; in the test with 2M, 8.8; with 3A, 7.46; in the test with 6L it was 8.8; in the test with 7F, 1.99; with 8A, 7.35. Besides, the “standardized gMFI” value with 9A turned out to be 9.98.

(Values after US20230348616A1 (MIE UNIVERSITY, published 2023).)
